Reference: US20240092867A1 (UNIVERSITY OF CHICAGO, published 2024)

Tests used:
[1] = target: T1, human plasma-derived vWF (human, UniProt P04275 764-2813); assay: SPR, vWF immobilised, GF flowed, 1:1 Langmuir fit
T1 construct: mature; also called plasma-derived purified vWF; von Willebrand factor
Experimental: (§1) A450 nm represents absorbance at 450 nm. Signals from VEGF-A121 served as a baseline, and bovine serum albumin (BSA) served as a negative control (n=4, mean±SD). […] Experimental curves were fitted with (C) 1:1 Langmuir fit model and (D) heterogeneous ligand-parallel reactions binding.
(§2) SPR assays were performed as described previously2. In brief, measurements were made with a Biacore X100 SPR system or Biacore 3000 SPR system (GE Healthcare). […] Recombinant human VEGF-A165, VEGF-A121, or PDGF-BB was flowed at increasing concentrations in the running buffer at 30 μL/min. The sensor chip was regenerated with glycine at pH 2 for every cycle.

[2] = target: T1, human plasma-derived vWF; assay: SPR; plasma-derived vWF immobilised (~2000 RU), VEGF-A165 flowed at 6.25-100 nM; 1:1 Langmuir fit [panel C]
Experimental: as §1, §2

[3] = target: T2, laminin-411 (human, UniProt Q16363 25-1823; P07942 22-1786; P11047 34-1609); assay: ELISA; plate coated with 10 µg/mL laminin, 1 µg/mL VEGF-A165 in solution without or with 10 µM heparin, bound GF detected with antibody [panel A]
T2 construct: Full-length recombinant human laminin isoform (BioLamina); chains read from the isoform name
Experimental: (§3) FIGS. 2A-C. […] ELISA plates were coated with 10 μg/mL laminin and further incubated with a 1 μg/mL (A) VEGF-A165, (B) PlGF-2, or (C) FGF-2 solution in the absence or presence of excess (10 μM) heparin. Bound GFs were detected using a specific antibody for each GF (n=4, mean±SEM). Statistical analyses were done using the Mann-Whitney U test by comparing the signals with and without heparin. *p<0.05, **p<0.01.
(§4) Because the GFs that bound to laminins have also been previously reported to bind to other ECM glycoproteins through HBDs, it was hypothesized that HBDs of laminins might be responsible for the interactions between GFs and laminin. To address this hypothesis, ELISA assays were repeated for VEGF-A165, PlGF-2 or FGF-2 in the presence of heparin added in excess (10 μM). […] To further confirm this, the inventors tested direct GF binding to the LG domains from human laminin α3, α4 and α5, within which HBDs of laminin were localized.

[4] = target: T3, laminin-421 (human, UniProt Q16363 25-1823; P55268 33-1798; P11047 34-1609); assay: as above
T3 construct: Full-length recombinant human laminin isoform (BioLamina); chains read from the isoform name
T3 sequence (Q16363 25-1823 limits assumed, chain 1 of 3): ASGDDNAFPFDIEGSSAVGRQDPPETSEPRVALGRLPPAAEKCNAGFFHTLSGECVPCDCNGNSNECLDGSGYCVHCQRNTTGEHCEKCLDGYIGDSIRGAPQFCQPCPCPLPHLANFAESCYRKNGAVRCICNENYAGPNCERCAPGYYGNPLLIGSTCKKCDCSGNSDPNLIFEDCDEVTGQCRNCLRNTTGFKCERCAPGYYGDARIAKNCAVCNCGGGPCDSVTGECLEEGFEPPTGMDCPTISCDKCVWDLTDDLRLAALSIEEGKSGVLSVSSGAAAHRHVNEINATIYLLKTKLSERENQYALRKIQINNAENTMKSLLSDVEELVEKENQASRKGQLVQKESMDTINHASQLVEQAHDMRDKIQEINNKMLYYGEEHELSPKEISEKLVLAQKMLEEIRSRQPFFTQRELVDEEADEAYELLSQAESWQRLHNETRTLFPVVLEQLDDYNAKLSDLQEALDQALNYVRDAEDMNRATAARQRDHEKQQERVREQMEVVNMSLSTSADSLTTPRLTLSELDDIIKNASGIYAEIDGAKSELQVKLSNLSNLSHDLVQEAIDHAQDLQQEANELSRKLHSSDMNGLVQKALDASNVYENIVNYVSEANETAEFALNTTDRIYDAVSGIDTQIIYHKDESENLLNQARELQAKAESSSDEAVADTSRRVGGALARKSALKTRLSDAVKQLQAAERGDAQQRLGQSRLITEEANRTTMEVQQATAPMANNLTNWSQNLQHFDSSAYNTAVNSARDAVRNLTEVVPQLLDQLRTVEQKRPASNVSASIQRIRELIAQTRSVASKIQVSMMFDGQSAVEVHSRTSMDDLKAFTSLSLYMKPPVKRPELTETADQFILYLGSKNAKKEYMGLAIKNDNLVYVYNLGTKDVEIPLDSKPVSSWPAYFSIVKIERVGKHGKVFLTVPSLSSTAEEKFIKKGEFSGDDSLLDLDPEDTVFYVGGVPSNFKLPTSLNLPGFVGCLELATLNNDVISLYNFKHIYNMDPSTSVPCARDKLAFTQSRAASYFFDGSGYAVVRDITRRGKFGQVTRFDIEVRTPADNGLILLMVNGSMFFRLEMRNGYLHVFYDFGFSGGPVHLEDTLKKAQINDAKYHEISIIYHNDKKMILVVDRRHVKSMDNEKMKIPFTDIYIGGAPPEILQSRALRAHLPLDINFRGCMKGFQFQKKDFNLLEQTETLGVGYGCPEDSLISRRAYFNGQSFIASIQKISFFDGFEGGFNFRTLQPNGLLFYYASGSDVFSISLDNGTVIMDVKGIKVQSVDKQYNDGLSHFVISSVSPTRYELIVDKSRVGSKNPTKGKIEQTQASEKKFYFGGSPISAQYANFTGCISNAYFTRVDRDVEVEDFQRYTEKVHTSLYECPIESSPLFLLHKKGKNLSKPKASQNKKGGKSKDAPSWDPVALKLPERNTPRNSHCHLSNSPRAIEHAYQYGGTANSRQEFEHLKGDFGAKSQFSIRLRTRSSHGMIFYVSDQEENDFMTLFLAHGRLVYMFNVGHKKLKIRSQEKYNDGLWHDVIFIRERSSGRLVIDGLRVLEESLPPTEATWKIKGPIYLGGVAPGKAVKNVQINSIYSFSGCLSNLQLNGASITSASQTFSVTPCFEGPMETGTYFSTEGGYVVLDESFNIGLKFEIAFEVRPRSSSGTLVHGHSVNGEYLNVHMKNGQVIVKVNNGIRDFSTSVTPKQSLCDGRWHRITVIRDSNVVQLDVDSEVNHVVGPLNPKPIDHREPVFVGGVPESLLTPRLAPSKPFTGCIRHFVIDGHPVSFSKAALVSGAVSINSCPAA
T3 sequence (P55268 33-1798 limits assumed, chain 2 of 3): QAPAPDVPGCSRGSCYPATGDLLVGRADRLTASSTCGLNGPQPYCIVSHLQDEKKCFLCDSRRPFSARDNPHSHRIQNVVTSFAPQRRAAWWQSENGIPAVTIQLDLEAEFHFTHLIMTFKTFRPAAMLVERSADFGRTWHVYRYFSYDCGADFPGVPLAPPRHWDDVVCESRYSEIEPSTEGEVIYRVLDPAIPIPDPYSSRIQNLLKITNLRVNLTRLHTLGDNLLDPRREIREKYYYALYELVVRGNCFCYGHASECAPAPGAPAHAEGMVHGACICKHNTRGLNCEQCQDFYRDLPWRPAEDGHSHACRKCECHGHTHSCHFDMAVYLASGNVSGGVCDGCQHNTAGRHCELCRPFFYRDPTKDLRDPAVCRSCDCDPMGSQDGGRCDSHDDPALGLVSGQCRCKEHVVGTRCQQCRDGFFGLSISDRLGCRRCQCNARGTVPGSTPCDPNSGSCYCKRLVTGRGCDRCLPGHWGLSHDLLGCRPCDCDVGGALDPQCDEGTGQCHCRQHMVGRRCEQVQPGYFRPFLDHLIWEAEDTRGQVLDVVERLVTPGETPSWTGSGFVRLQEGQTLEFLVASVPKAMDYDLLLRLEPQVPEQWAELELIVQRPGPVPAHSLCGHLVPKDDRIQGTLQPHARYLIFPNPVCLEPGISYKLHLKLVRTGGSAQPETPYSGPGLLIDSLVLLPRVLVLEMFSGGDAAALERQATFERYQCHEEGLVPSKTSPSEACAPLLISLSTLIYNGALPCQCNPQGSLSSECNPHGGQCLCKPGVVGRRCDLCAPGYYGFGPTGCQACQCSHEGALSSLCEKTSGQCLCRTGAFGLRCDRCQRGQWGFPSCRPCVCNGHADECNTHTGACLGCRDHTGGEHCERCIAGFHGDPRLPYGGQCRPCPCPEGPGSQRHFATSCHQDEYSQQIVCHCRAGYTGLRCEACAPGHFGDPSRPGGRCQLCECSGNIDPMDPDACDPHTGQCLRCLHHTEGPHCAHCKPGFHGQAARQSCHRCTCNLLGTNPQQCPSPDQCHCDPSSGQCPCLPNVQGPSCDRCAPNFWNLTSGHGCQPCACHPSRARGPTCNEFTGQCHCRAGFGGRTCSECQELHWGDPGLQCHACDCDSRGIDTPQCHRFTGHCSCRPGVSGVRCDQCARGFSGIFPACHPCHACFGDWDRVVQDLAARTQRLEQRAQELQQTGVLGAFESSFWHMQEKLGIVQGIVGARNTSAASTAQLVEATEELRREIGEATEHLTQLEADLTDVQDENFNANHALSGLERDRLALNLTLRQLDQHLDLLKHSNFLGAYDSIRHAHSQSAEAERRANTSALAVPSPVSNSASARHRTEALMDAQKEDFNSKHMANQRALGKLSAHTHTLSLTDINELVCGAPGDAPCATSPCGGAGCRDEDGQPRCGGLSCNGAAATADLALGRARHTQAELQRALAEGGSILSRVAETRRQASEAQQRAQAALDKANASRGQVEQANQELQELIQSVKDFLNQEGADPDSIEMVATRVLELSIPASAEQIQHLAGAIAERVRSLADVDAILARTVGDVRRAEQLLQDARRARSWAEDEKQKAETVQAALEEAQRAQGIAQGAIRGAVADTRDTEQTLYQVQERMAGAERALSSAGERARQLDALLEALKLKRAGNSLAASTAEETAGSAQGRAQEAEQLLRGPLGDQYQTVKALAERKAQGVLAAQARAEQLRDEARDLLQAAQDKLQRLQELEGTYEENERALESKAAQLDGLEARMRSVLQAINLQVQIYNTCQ
T3 sequence (P11047 34-1609 limits assumed, chain 3 of 3): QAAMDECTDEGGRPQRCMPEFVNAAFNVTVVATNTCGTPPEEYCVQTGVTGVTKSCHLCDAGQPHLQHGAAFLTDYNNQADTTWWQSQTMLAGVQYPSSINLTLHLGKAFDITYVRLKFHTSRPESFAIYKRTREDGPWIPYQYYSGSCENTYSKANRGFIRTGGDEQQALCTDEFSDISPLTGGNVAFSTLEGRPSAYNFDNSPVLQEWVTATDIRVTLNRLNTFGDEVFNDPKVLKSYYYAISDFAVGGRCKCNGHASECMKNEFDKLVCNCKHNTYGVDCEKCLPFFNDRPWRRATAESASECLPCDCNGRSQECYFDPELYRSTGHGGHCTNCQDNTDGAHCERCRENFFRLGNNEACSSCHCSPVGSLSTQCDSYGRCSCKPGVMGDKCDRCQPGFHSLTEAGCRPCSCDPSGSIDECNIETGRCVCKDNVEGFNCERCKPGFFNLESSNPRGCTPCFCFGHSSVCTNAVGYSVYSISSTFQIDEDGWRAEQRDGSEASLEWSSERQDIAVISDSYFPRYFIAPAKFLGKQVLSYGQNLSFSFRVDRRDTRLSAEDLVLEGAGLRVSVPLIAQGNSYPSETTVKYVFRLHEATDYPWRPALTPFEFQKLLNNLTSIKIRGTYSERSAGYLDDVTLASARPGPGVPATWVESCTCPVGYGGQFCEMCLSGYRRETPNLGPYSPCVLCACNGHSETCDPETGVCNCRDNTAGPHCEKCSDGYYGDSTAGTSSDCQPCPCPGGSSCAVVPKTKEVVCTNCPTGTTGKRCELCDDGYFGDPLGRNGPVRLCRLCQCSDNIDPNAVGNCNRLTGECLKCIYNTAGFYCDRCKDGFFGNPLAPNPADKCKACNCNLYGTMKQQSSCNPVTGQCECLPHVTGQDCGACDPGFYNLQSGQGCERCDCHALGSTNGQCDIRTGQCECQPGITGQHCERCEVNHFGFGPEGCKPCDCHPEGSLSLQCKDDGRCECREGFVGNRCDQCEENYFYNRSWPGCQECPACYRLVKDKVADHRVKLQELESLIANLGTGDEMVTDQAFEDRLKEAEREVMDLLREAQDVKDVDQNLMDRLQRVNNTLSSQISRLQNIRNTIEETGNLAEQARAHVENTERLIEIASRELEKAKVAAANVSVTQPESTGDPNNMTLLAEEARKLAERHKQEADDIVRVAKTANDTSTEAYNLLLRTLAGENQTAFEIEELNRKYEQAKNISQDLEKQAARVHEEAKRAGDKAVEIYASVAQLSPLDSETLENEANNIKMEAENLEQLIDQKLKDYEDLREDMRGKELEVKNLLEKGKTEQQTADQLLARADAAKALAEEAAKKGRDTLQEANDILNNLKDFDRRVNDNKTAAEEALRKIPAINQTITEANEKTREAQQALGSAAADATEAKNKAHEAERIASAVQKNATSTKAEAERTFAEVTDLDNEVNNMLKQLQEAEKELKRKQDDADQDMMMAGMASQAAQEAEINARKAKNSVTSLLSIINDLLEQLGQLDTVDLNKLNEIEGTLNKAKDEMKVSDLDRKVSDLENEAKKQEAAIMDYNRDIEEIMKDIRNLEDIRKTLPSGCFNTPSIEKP
Experimental: as §3, §4

[5] = target: T4, laminin-521 (human, UniProt O15230 36-3695; P55268 33-1798; P11047 34-1609); assay: SPR, laminin-521 immobilised, GF flowed, Langmuir fit
T4 construct: Full-length recombinant human laminin isoform (BioLamina); chains read from the isoform name
Experimental: A450 nm represents absorbance at 450 nm. BSA-coated wells served as negative controls (n=4, mean±SEM). Signals greater than 0.1 (grey box) are considered to be significant. […] Experimental curves were fitted with Langmuir binding kinetics.
The obtained binding curves were fitted with Langmuir binding kinetics to calculate specific dissociation constants (KD) (FIG. 1B).
SPR analysis was performed as described previously². In brief, measurements were made with a Biacore 3000 SPR system (GE Healthcare). […] VEGF-A165, PDGF-BB, or PlGF-2 was flowed at increasing concentrations in the running buffer at 20 μL/min. The sensor chip was regenerated with 50 mM NaOH for every cycle. Specific bindings of GFs to laminin were calculated by comparison to a non-functionalized channel used as a reference. Experimental results were fitted with Langmuir binding kinetics using BIAevaluation software (GE Healthcare).

- Kd [1]: 27 nM
- Kd [2]: 27.4 nM
- binding result [3]: binds
- binding result [4]: binds
- Kd [5]: 5.8 nM
B1: vascular endothelial growth factor (VEGF)-A165 (ligand, human, UniProt P15692-4 27-191, looked up)
chain: APMAEGGGQNHHEVVKFMDVYQRSYCHPIETLVDIFQEYPDEIEYIFKPSCVPLMRCGGCCNDEGLECVPTEESNITMQIMRIKPHQGQHIGEMSFLQHNKCECRPKKDRARQENPCGPCSERRKHLFVQDPQTCKCSCKNTDSRCKARQLELNERTCRCDKPRR
notes: mature; Purchased in mature form, not glycosylated
